Assay [1] has as its target gB of hCMV strain Towne, on virions (human cytomegalovirus strain Towne, UniProt P13201 23-907). Briefly: cell-based or functional assay.
Assay [2] has as its target gB of hCMV clinical isolate Altu, on virions (human cytomegalovirus clinical isolate …). Description: cell-based or functional assay.
Assay [3] deals with T1, gB of hCMV strain AD169, on virions (human cytomegalovirus strain AD169, UniProt P06473 32-906). Description: cell-based or functional assay.
Assay [4] addresses T1, gB of hCMV strain AD169, on virions. Briefly: cell-based or functional assay. This is another data set of the same source.
The target of assay [5] is gB of hCMV isolate TB40E, on virions (human cytomegalovirus isolate TB40E). Briefly: cell-based or functional assay.
Assay [6] concerns the target T1, gB of hCMV strain AD169, on virions. Description: cell-based or functional assay. The source holds these as a separate data set.
Assay [7] deals with T2, AD-4 mutant protein with lysine residues 378 and 379 exchanged for alanine, eukaryotic expression (human cytomegalovirus strain AD169, UniProt P06473 121-438).
T2 chain: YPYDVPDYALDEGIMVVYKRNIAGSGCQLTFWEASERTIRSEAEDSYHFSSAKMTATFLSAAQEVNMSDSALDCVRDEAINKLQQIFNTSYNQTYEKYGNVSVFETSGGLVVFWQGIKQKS
Briefly: indirect immunofluorescence on transiently expressed AD-4 mutant proteins.

From patent US20130089559A1 (4 ANTIBODY, published 2013) come the findings set out here.

T1 sequence (P06473 32-906 limits assumed): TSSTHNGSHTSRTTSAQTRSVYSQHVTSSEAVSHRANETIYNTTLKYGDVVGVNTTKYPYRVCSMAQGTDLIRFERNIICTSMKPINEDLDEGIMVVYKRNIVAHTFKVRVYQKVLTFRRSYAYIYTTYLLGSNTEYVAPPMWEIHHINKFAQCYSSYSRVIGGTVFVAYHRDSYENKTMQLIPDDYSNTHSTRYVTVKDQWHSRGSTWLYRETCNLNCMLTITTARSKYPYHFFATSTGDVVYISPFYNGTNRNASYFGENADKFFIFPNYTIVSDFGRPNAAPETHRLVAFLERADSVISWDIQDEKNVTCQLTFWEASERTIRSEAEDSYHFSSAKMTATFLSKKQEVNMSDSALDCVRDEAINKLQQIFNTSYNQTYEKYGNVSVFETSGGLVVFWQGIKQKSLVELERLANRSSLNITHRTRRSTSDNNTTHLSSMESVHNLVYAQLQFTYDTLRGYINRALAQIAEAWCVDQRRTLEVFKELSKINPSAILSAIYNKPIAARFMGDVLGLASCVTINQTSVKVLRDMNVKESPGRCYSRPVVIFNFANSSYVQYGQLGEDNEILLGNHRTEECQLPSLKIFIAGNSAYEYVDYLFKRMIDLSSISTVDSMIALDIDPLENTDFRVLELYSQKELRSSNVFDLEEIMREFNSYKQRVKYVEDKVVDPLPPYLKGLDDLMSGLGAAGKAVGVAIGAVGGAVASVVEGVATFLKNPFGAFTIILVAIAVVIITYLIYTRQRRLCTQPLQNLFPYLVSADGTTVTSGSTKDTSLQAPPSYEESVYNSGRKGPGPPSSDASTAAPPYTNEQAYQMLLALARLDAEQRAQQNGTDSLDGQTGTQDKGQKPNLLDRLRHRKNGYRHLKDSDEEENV
gB of hCMV strain Towne, on virions, sequence (P13201 23-907 limits assumed): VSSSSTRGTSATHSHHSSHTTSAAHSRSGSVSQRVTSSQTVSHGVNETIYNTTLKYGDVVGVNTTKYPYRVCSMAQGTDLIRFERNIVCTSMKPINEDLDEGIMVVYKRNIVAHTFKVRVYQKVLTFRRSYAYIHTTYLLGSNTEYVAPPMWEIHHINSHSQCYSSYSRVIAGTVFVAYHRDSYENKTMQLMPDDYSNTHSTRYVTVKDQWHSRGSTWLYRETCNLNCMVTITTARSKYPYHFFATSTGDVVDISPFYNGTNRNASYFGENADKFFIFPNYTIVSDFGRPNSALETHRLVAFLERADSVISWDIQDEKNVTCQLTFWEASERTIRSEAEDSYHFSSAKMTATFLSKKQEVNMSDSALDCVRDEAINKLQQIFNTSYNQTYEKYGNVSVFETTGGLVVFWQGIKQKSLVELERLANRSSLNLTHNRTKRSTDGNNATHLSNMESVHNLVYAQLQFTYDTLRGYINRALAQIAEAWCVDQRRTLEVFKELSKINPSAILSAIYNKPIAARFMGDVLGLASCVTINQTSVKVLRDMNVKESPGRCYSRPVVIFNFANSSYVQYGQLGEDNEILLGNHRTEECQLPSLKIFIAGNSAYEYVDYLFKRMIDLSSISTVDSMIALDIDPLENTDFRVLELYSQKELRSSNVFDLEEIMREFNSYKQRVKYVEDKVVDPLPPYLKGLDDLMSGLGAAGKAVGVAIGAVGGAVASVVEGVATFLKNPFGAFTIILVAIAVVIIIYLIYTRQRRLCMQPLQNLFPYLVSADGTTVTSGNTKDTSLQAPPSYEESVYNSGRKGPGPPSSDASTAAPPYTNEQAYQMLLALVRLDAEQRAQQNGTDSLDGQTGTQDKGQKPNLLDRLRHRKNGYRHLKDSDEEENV

B1: Ab-14 (antibody, V domains shown)
VH: QVQLVQSEAEVEKPGASVKVSCKASGYTFTDYYMNWVRQAPGQGLEWMGCINPHSGGTNYAQKFQGRVTMTRDTSISTAYMELSRLKSDDTAVYYCARDGAKTVTTFGASLLYYYDIMDVWGQGTLVTVSS
VL: QSVLTQPPSVSAAPGQKVTISCSGSSSNIGKNYVSWYQHFPGTAPKLLIYDNNKRPSGIPDRFSGSKSGTSATLGITGLQTGDEADYYCATWDRSLSVVFGGGTKVTVL
notes: also called Antibody Ab-14; SM3-1 VH with SM3-1 VL
Take B1: the results for the “50% neutralising activity (immediate-early antigen immunofluorescence, HFF)” value in assay [1], in assay [2] and in assay [3] were 1.3 µg/mL, 0.6 µg/mL and 1.5 µg/mL, respectively. Moreover, the “50% Neutralising activity (luciferase assay, HFF)” value in assay [4] came out at 0.4 µg/mL. Also, in assay [5], the “50% neutralising activity, dendritic cells (lowest of six donors)” value amounted to 0.2 µg/mL. In addition, the “50% neutralising activity, endothelial cells (HUVECs)” value in assay [5] was determined as 1 µg/mL. Further, the “50% neutralising activity, fibroblast cells (HFFs)” value in assay [6] turned out to be 0.4 µg/mL. The binding result in assay [7] is reported as “no binding”.
